According to paper PMC6745501, “Plant photoreceptors and their signaling components compete for COP1 binding via VP peptide motifs” (The EMBO Journal, 2019):
Changes are numbered by the printed parent chain.

T1: full‐length UVR8 (recombinant) (Arabidopsis, UniProt Q9FN03 1-440)
T1 construct: UV … LOCUS 8 (UVR8) UV-B photoreceptor, Arabidopsis, full length; Dimer in the ground state; monomerized by 60 min UV-B on ice where the assay says so; not shown: His10, N-terminal, cleaved; Twin-Strep, N-terminal, cleaved
T1 sequence (looked up): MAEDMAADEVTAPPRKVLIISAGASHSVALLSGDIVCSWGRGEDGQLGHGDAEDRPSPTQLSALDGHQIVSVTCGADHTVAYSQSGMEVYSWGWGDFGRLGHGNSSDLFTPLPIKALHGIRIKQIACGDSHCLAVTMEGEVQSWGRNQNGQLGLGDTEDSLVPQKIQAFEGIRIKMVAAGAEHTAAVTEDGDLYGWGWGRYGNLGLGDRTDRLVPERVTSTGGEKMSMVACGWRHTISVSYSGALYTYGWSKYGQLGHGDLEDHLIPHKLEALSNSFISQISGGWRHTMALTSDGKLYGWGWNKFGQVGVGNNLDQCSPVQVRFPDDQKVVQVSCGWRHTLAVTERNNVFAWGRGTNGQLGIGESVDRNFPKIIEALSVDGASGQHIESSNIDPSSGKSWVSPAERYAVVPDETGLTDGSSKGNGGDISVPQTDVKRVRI

T2: UVR8^ValPro/AlaAla (recombinant) (Arabidopsis, UniProt Q9FN03 1-440, ValPro/AlaAla)
T2 construct: UVR8, Arabidopsis, Val-Pro of the C-terminal VP motif mutated to Ala-Ala; compared with the wild type (full-length) protein, monomer ~50 kDa; also called the mutant photoreceptor; not shown: His10, N-terminal, cleaved; Twin-Strep, N-terminal, cleaved
T2 sequence (looked up): T1 sequence (looked up) with V410A, P411A

T3: UVR8^12–381 β‐propeller core (Arabidopsis, UniProt Q9FN03 12-381)
T3 construct: also called UVR8 β‐propeller core; UVR8 core domain; not shown: His10, N-terminal, cleaved; Twin-Strep, N-terminal, cleaved
T3 sequence (looked up): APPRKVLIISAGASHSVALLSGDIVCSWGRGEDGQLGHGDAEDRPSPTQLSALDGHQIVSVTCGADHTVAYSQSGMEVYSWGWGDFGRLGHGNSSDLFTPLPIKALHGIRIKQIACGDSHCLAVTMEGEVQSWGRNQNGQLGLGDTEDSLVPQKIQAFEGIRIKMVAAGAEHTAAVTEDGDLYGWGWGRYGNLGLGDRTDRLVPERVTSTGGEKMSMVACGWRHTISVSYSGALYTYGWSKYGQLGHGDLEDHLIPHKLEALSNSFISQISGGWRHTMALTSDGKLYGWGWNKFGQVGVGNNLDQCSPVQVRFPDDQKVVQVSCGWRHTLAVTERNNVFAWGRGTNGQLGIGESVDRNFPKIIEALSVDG

T4: COP1^Tyr441Ala WD40 domain (Arabidopsis, UniProt P43254 349-675, Tyr441Ala)
T4 construct: COP1, Arabidopsis, WD40 domain (mutant of COP1 349-675), Tyr441Ala; not shown: His10, N-terminal, cleaved; Twin-Strep, N-terminal, cleaved
T4 sequence (looked up): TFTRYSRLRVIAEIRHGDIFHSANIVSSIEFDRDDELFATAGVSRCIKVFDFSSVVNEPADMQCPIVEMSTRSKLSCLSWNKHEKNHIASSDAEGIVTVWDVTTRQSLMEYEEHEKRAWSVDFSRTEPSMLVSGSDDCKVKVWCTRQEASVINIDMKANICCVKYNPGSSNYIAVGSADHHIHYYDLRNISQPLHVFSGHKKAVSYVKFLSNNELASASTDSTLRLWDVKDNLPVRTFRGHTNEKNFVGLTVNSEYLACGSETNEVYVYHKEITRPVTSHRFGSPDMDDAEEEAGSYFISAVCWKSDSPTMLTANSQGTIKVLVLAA

T5: COP1^349–675,Lys422Ala WD40 domain (Arabidopsis, UniProt P43254 349-675, Lys422Ala)
T5 construct: COP1, Arabidopsis, WD40 domain, residues 349-675, Lys422Ala; also called COP1^Lys422Ala; not shown: His10, N-terminal, cleaved; Twin-Strep, N-terminal, cleaved
T5 sequence (looked up): T4 sequence (looked up) with K74A, A93Y

B1: Arabidopsis COP1^349–675 WD40 domain (domain or fragment, UniProt P43254 349-675, looked up)
chain: T4 sequence (looked up) with A93Y
notes: COP1 (CONSTITUTIVELY PHOTOMORPHOGENIC 1) E3 ubiquitin ligase, Arabidopsis, WD40 domain, residues 349-675; also called COP1 WD40 domain; COP1 WD40; not shown: His10, N-terminal, cleaved; Twin-Strep, N-terminal, cleaved
B2: HY5^39–48 VP peptide (peptide, UniProt O24646 39-48, looked up)
peptide: EIRRVPEFGG
notes: ELONGATED HYPOCOTYL 5 (HY5) bZIP transcription factor, residues 39-48 (holds Arg41, Glu45); also called HY5 VP peptide; HY5 peptide; source: synthetic peptide (Peptide Specialty Labs GmbH)

Experiments:
Details in all cases: both partners purified
[1] = target: T1, full‐length UVR8 (recombinant); test: not stated; non-photoactivated (ground-state) full-length UVR8 versus COP1 WD40; Appendix Fig S4A, not shown (ITC or GCI)
[2] = target: T2, UVR8^ValPro/AlaAla (recombinant); test: SEC; analytical SEC, Superdex 200 Increase 10/300 GL; ~4 μM of each protein mixed; UVR8 form pre-monomerized by UV-B; 150 mM NaCl, 20 mM HEPES 7.4, 2 mM BME; fractions on Coomassie-stained SDS-PAGE
[3] = target: T3, UVR8^12–381 β‐propeller core; test: not stated; UV-B-activated UVR8 forms versus COP1 WD40 and its mutants; Appendix Figs S4B, S4C, S6A, S6B, not shown (ITC or GCI)
[4] = target: B1; test: ITC; VP peptide (titrant, 500-3,000 μM) injected into COP1 WD40 in the cell at about 10-fold lower concentration; 150 mM NaCl, 20 mM HEPES 7.4, 2 mM BME; 25°C; one-site binding model
[5] = target: T4, COP1^Tyr441Ala WD40 domain; test: as above
[6] = target: T5, COP1^349–675,Lys422Ala WD40 domain; test: as above

Kd [1] [µM] | binding result [2] | Kd [3] [µM] | Kd [4] [µM] | fold stronger binding than UVR8^406–413 [4] [fold] | stoichiometry N [5] | stoichiometry N [6] | Binder
~1 | binds | ~0.5 | – | – | – | – | B1
– | – | – | ~20 | ~8 | 0.92 | 0.83 | B2
